Assay: soluble on expression in E. coli; label from the status in PepcDB or PDB records

| Sequence | soluble on expression in E. coli |
| --- | --- |
| MRTMPDAPALHLTAIDSHAHVFSRGLNLASQRRYAPNYDAPLGDYLGQLRAHGFSHGVLVQPSFLGTDNRYLLSALQTVPGQLRGVVMLERDVEQATLAEMARLGVRGVRLNLMGQDMPDLTGAQWRPLLERIGEQGWHVELHRQVADIPVLVRALQPYGLDIVIDHFGRPDARRGLGQPGFAELLTLSGRGKVWVKVSGIYRLQGSPEENLAFARQALCALEAHYGAERLMWGSDWPHTQHESEVSFGSAVEQFEALGCSAQLRQALLLDTARALFGFELEHHHHHH | soluble |
| ILDTKPIPTIVDATTLGISGNTSGDYWLPTTMSLYQKELTDQIVSLHYSDILRYFETSHYKEDVILESMKTMCLNGSLVATHPYLLIDHYMPKSLITRDVPAHLAENSGKFSVLRDLINLVQEYETETAIVCRPGRTMDLLEALLLGNKVHIKRYDGHSIKSAAAANDFSCTVHLFSSEGINFTKYPIKSKARFDMLICLDTTVDTSQKDIQYLLQYKRERKGLERYAPIVRLVAINSIDHCRLFFGKKFDKNSREYLENVTAAMVILRDRLGTLPPDLRPIYSQKLHYLVEWLENPTVPWPLPDIYPLKQYTSMDVERSLLTEVHFK | soluble |
| AKFREIANIALGKGAAIMADHLHEFIQLPVPHVGPLSYGELHMTLVDVIGRDSSVAVSQRFVGGGIHGEALVCLRGKDINQIGERLGYLLEFTPHNEIILNVSNLLVSSFLTSLGNQLDKQFSLRQPGIVDTITPYNEEQGESGELFTIEYTYMAEALDFECEVLFLIDKPSVEIIYEIMELI | not soluble |
| MIQDIKRSSAPAAPAPVTVLKMWPNEMRSQSLEENLDAKLEQFKKEHSPVKERGNCSKTRKISENQPPPSFEVVMAKIRGIQESLKNMEDQMNEEERGKEMPDSTENSFDFSKIWQYFDQTRIEEIRALLKKRQFPDSP | not soluble |
| MGSDKIHHHHHHMQNPFTTTFSKTPEYTYIHTEKTEEILENFIYDNPSESVYKITGVRGSGKTVILAKVEEELRTNESRYINWLVFDVNPARDILGQIAAMLVKAGFGSQDKKTTGINLSATVMGTGGGIGYTAENNNNFFDIGVEVETMIQAAQKKGKKILIGIDEVSKSEEMIKFASEYGRWLRAGYPVYFVCTGLYENIQELSNVKNLTFFRRAATVKTEPLNMIRMTEMYKSKLDIDSNEAREMAKITKGYAYAFQELGVLYFKKKLDELLEDILPKLKAELFAYSYEKIWEEMTEMDRFLAGLLTEKEEYKREEVLKLMGEKSGSYSMYRDRLIKRGILNSRQGYISLALPYFGEYIKEYC | not soluble |
| MASEASVRLGVPPGRLWIQRPGIYEDEEGRTWVTVVVRFNPSRREWARASQGSRYEPSITVHLWQMAVHTRELLSSGQMPFSQLPAVWQLYPRRKYRAADSSFWEIADHGQIDSMEQLVLTYQPERKD | not soluble |
| SKKVIGKKRAHAEDDELDPMDPSSYSDAPRGGWVVGLKGVQPRAADTTASTGIFFKFQITDLTKPDEKIEVLTKRDQIVFQGPLFQQRPYPSPGAVLRRNAEVASSQKKKPNSQFTEITKRGDGSDGLGDAD | soluble |
| MGSSHHHHHHGGTGENLYFQGGSGMSNSTEQALLQIAQQIERAVDDEIDRIDQMDDDEILAIRQKRLKQLKEIQARRDEWLRKGHGQYLEIAEPKEFFDNVQSSERIVVHFMRRSTPRCEIIERHLRTIAHEHFETRFCYVDVERIPSLPERFNVMMLPTLMLVEKGHTFHSIIGFDEFGGTDDFTTDTVTQVLAHYGMVNEKGMFAADQNDE | soluble |
| MHKDIKLVKETEIRKPIGSPFIVYFSSISNNTHRFIEKLGFQHKRIPVDITQSITVSNEYVLICPTYSGGGNQVEGAVPKQVIQFLNNKHNRELCRGVIASGNTNFGDTFCLAGTVISKKLNVPLLYQFELLGTKNDVEQTQKIIANFFQNSN | soluble |
| MKKEIKFSLVYRDMWQSSGKYQPRADQLVRIAPLIIEMGCFSRVETNGGAFEQVNLLYGENPNKAVRAFTKPFHEASIQTHMLDRGLNGLRMYPVPADVRRLMYKVKHAQGVDITRIFCGLNEVRNIIPSIHYALEAGMIPQATLCITFSPVHTVEYYTAIAERLIEAGAPEICLKDMAGVGRPEMLGRLTKAIKERHPEIIIQYHGHSGPGLSMASILEVCENGADIIDVAMEPISWGKVHPDVISVQAMLKDAGFQVPEINMKAYMKARAMTQEFIDDFLGYFMDPTNKHMSSLLLKCGLPGGMMGSMMADLKGVHSGINLILRGKNEPELSIDDLLVMLFDEVEYVWPKLGYPPLVTPFSQYVKNVALMNVMSLIKGEERWTMIDNHTWDMILGKSGRLPGALAPEIIALAKEKGYEFTDEDPQKNYPDQLDEYRKEMTENGWDFGQDDEELFELAMHDRQYRDYKSGIAKKRFEDDLQRAKDAALAKQGFSEEEVKRMKRAKAEPVTAMEKGQIIWEIDVESPSMPPEVGHKYDPDDVFCYIATPWHTYDKVLANFSGRVIEVCAKQGALVDKGEPLAYIERCEEPA | not soluble |
| MSDPVADFLAREQNLFADFDGAPPAAAAANPDAPEADAPAPALDDDFGDLQIAGDEPPPVVHPTDSGVDLDGLVDDNAAAPAIVVPAVEPMVNGNHSASSGGSKGPSPILSTVPRIEAEKIRLWKAQQEQLLSKKDEAEEKKKIELRANAKKELEEWYKQREKTLQLSHDENLKNEKSNQELFAKQQDGDAQWETVNKLVDQQKSKSGKDLSRLKTLLAGLKHAGK | not soluble |
| MGSDKIHHHHHHMIVLFVDFDYFYAQVEEVLNPSLKGKPVVVCVFSGRFEDSGAVATANYEARKFGVKAGIPIVEAKKILPNAVYLPMRKEVYQQVSSRIMNLLREYSEKIEIASIDEAYLDISDKVRDYREAYNLGLEIKNKILEKEKITVTVGISKNKVFAKIAADMAKPNGIKVIDDEEVKRLIRELDIADVPGIGNITAEKLKKLGINKLVDTLSIEFDKLKGMIGEAKAKYLISLARDEYNEPIRTRVRKSIGRIVTMKRNSRNLEEIKPYLFRAIEESYYKLDKRIPKAIHVVAVTEDLDIVSRGRTFPHGISKETAYSESVKLLQKILEEDERKIRRIGVRFSKFIEAIGLDKFFDT | not soluble |
| MGSDKIHHHHHHMNVFPADRIEAMHDAGLDILERLGIKVLLPEARAIFATAGAMVKDDMVYIGRDIVEASLASAPRRIEGRAGAPERDVVLELGSLVFQPGAGAPHATDEVRGRRPGCARDFKELIQLTNHFDVFHMLPPLVEPQDIATNIRHYFTLECQLTESNKFPFIFSRGTPQVTESFEMLRDFRGLSDAEFEAEPRCYTIINTNSPRTLDVPMAQGLIDFARMGQISIVTPFTLMGAMAPITVAGAITLSHAEALAAITLTQLTNPGAPVCYGTFTSNVDMKSGAPAFGTPSHFQASLAAGQLARHIGLPWRSAAGSAANLNDVQAANENQFGLWGCLMAGATVVIHSAGWLEGGLSISYEKLITDAEVLNMVAELCAGAQASDAEIGLDAIEDTAPSGHFFATAQTMARYQTEFYEPIIHDYANFGTWTERGSKDASTRARDVWQGILADPKSPTVNGDRLSALQDDIARRTQAGGAYPES | not soluble |
| EGDKVTGEVQQVEDKQVVVHINGGKFNGIIPISQLSTHHIENPSEVVKVGDEVEAYVTKIEFDEENDTGAYILSKRQ | not soluble |
| MTTIPVTSIAAEPAVSCSTCAACCCQLEVMLITDTGVPERFIDTDDWGGEVMRRLDDGWCAALDRDSMRCSIYELRPLICREFELGEADCLSERRGIATAYRLEHHHHHH | not soluble |
| MSRVITHGQVKRVSETNAYAVPVESLTFPTLQPIGPLPPAGTTGVLITQRVPNTPYTPAPPPPPPVPANQTIIYEDGNNNNTIYMRVVSVVGPAKYNIEVL | not soluble |
| GMRSNRVTQHPPLQLSLPVHLPDDETFTSYYPAAGNDELIGALKSAASGDGVQAIYLWGPVKSGRTHLIHAACARANELERRSFYIPLGIHASISTALLEGLEQFDLICIDDVDAVAGHPLWEEAIFDLYNRVAEQKRGSLIVSASASPMEAGFVLPDLVSRMHWGLTYQLQPMMDDEKLAALQRRAAMRGLQLPEDVGRFLLNRMARDLRTLFDVLDRLDKASMVHQRKLTIPFVKEMLRL | soluble |
| MERGEIWLVSLDPTAGHEQQGTRPVLIVTPAAFNRVTRLPVVVPVTSGGNFARTAGFAVSLDGVGIRTTGVVRCDQPRTIDMKARGGKRLERVPETIMNEVLGRLSTILT | soluble |
